These results are taken from paper PMC6954424.

For the experiment, the target named is mouse IgG (on magnet beads) (mouse). The experiment can be described thus: pull-down; DNA-barcoded HaloTag protein G (93 nM by qPCR) mixed with mouse IgG magnet beads in PBS-NP40, 4°C, 2 h; three washes; bound barcode quantified by qPCR.

On to “DNA-barcoded HaloTag protein G (from UniProt P06654 34-417) (natural protein)”, for which the fold signal (qPCR of the barcode) over the negative control barcoded GST with IgG worked out at 1000 fold.
